Measured values taken from article doi:10.1101/2025.03.13.643145 (bioRxiv, 2025).
Positions of bridges follow the written chain, without caps; N, C: chain ends. No end group written: not given here.

Legend:
Assay in all cases: ELISA
[1] = target: T1, CD151 EC2 domain (extracellular-2 domain of tetraspanin CD151, residues 113-221) (UniProt P48509 113-221)
T1 sequence: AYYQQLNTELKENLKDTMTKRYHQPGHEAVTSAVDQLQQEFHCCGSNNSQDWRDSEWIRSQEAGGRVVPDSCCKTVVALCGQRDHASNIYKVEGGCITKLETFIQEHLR

[2] = target: T2, CD9 EC2 domain (extracellular-2 domain of tetraspanin CD9, residues 113-192) (UniProt P21926 113-192)
T2 sequence: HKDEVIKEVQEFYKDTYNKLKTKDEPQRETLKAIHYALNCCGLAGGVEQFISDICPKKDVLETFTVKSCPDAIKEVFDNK

[3] = target: T3, CD81 EC2 domain (extracellular-2 domain of tetraspanin CD81, residues 113-201) (UniProt P60033 113-201)
T3 sequence: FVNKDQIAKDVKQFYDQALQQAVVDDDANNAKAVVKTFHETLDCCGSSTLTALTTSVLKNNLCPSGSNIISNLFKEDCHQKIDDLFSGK

Measured: binding result

CRLAGIVQPNDGQSHVGSDNHYSASTTMC (disulfide 1-29; also: GST fusion protein) [disulfide-linked cyclic site 2 peptide of integrin β3 (GST fusion protein)]
binds: all assays above
